Source: article PMC9352680, “A comprehensive thermodynamic model for RNA binding by the Saccharomyces cerevisiae Pumilio protein PUF4”

T1: PUF4 RNA-binding domain (Saccharomyces cerevisiae, UniProt P25339 537-888)
T1 sequence: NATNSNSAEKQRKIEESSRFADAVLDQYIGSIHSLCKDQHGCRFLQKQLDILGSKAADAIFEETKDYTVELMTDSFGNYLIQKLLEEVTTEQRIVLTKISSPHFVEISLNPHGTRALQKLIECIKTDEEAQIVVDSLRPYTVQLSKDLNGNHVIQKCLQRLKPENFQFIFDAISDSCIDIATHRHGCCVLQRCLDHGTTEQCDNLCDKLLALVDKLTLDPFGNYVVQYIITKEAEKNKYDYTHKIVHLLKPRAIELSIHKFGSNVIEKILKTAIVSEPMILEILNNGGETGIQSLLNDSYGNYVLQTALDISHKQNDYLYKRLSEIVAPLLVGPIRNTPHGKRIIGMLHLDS

B1: Ic_S2_P3E.1_K3.1_C3.1_H3.1_A3.1_[A6T]_F3.1_T3.1 (ssRNA)
RNA: UUUGAUUAAUAUGAUAUCGUUCUUUCUUGUAUUUAUUCUUUCUCGAUAUCAUAUUAAUCUUU
B2: Ib_S2_P4E.1_K4.1_C4.1_H4.1_A4.1_F4.1_[T8A]_[A9C]_T4.1 (ssRNA)
RNA: UUUGAUUAAUAUGAUAUCGUUCUUUCUUGUAUAUACUUCUUUCUCGAUAUCAUAUUAAUCUUU
B3: Ib_S2_P4E.1_K4.1_C4.1_H4.1_[G2T]_A4.1_F4.1_[A9T]_T4.1 (ssRNA)
RNA: UUUGAUUAAUAUGAUAUCGUUCUUUCUUUUAUAUUUUUCUUUCUCGAUAUCAUAUUAAUCUUU
B4: Ib_S2_P4E.1_K4.1_C4.1_H4.1_[A4G]_A4.1_F4.1_[A9T]_T4.1 (ssRNA)
RNA: UUUGAUUAAUAUGAUAUCGUUCUUUCUUGUGUAUUUUUCUUUCUCGAUAUCAUAUUAAUCUUU
B5: Ib_S2_P4E.1_K4.1_C4.1_H4.1_A4.1_[T5C]_F4.1_[T8A]_T4.1 (ssRNA)
RNA: UUUGAUUAAUAUGAUAUCGUUCUUUCUUGUACAUAAUUCUUUCUCGAUAUCAUAUUAAUCUUU
B6: Ib_S2_P4E.1_K4.1_C4.1_H4.1_[A4G]_A4.1_F4.1_[A9G]_T4.1 (ssRNA)
RNA: UUUGAUUAAUAUGAUAUCGUUCUUUCUUGUGUAUUGUUCUUUCUCGAUAUCAUAUUAAUCUUU
B7: Ib_S2_P4E.1_K4.1_C4.1_H4.1_[T1C]_A4.1_F4.1_[A9C]_T4.1 (ssRNA)
RNA: UUUGAUUAAUAUGAUAUCGUUCUUUCUCGUAUAUUCUUCUUUCUCGAUAUCAUAUUAAUCUUU
B8: Ib_S2_P4E.1_K4.1_C4.1_H4.1_A4.1_[A6T]_F4.1_[T8A]_T4.1 (ssRNA)
RNA: UUUGAUUAAUAUGAUAUCGUUCUUUCUUGUAUUUAAUUCUUUCUCGAUAUCAUAUUAAUCUUU
B9: Ib_S2_P4E.1_K4.1_C4.1_H4.1_[T3C]_A4.1_F4.1_[A9C]_T4.1 (ssRNA)
RNA: UUUGAUUAAUAUGAUAUCGUUCUUUCUUGCAUAUUCUUCUUUCUCGAUAUCAUAUUAAUCUUU
B10: Ib_S2_P4E.1_K4.1_C4.1_H4.1_[G2T]_A4.1_F4.1_[A9G]_T4.1 (ssRNA)
RNA: UUUGAUUAAUAUGAUAUCGUUCUUUCUUUUAUAUUGUUCUUUCUCGAUAUCAUAUUAAUCUUU
B11: Ib_S2_P4E.1_K4.1_C4.1_H4.1_[A4T]_A4.1_F4.1_[A9G]_T4.1 (ssRNA)
RNA: UUUGAUUAAUAUGAUAUCGUUCUUUCUUGUUUAUUGUUCUUUCUCGAUAUCAUAUUAAUCUUU
B12: Ib_S2_P4E.1_K4.1_C4.1_H4.1_[T1A]_A4.1_F4.1_[A9T]_T4.1 (ssRNA)
RNA: UUUGAUUAAUAUGAUAUCGUUCUUUCUAGUAUAUUUUUCUUUCUCGAUAUCAUAUUAAUCUUU
B13: Ia_S2_P4E.1_K4.1_C4.1_H4.1_A4.1_F4.1_[A9C]_T4.1 (ssRNA)
RNA: UUUGAUUAAUAUGAUAUCGUUCUUUCUUGUAUAUUCUUCUUUCUCGAUAUCAUAUUAAUCUUU
B14: Ib_S2_P4E.1_K4.1_C4.1_H4.1_[G2C]_A4.1_F4.1_[T8C]_T4.1 (ssRNA)
RNA: UUUGAUUAAUAUGAUAUCGUUCUUUCUUCUAUAUCAUUCUUUCUCGAUAUCAUAUUAAUCUUU
B15: Ib_S2_P4E.1_K4.1_C4.1_H4.1_[T1C]_A4.1_F4.1_[T8A]_T4.1 (ssRNA)
RNA: UUUGAUUAAUAUGAUAUCGUUCUUUCUCGUAUAUAAUUCUUUCUCGAUAUCAUAUUAAUCUUU
B16: Ib_S2_P4E.1_K4.1_C4.1_H4.1_[A4T]_A4.1_F4.1_[T8C]_T4.1 (ssRNA)
RNA: UUUGAUUAAUAUGAUAUCGUUCUUUCUUGUUUAUCAUUCUUUCUCGAUAUCAUAUUAAUCUUU
B17: Ib_S2_P4E.1_K4.1_C4.1_H4.1_[G2A]_A4.1_F4.1_[A9G]_T4.1 (ssRNA)
RNA: UUUGAUUAAUAUGAUAUCGUUCUUUCUUAUAUAUUGUUCUUUCUCGAUAUCAUAUUAAUCUUU
B18: Ib_S2_P4E.1_K4.1_C4.1_H4.1_[A4C]_A4.1_F4.1_[A9C]_T4.1 (ssRNA)
RNA: UUUGAUUAAUAUGAUAUCGUUCUUUCUUGUCUAUUCUUCUUUCUCGAUAUCAUAUUAAUCUUU
B19: Ic_S2_P4E.1_K4.1_C4.1_H4.1_A4.1_F4.1_[T8A]_T4.1 (ssRNA)
RNA: UUUGAUUAAUAUGAUAUCGUUCUUUCUUGUAUAUAAUUCUUUCUCGAUAUCAUAUUAAUCUUU
B20: Ib_S2_P4E.1_K4.1_C4.1_H4.1_A4.1_[T5A]_F4.1_[T8A]_T4.1 (ssRNA)
RNA: UUUGAUUAAUAUGAUAUCGUUCUUUCUUGUAAAUAAUUCUUUCUCGAUAUCAUAUUAAUCUUU
B21: Ib_S2_P4E.1_K4.1_C4.1_H4.1_[A4G]_A4.1_F4.1_[T8C]_T4.1 (ssRNA)
RNA: UUUGAUUAAUAUGAUAUCGUUCUUUCUUGUGUAUCAUUCUUUCUCGAUAUCAUAUUAAUCUUU
B22: Ib_S2_P4E.1_K4.1_C4.1_H4.1_A4.1_[T5A]_F4.1_[T8C]_T4.1 (ssRNA)
RNA: UUUGAUUAAUAUGAUAUCGUUCUUUCUUGUAAAUCAUUCUUUCUCGAUAUCAUAUUAAUCUUU
B23: Ib_S2_P4E.1_K4.1_C4.1_H4.1_[T3C]_A4.1_F4.1_[A9T]_T4.1 (ssRNA)
RNA: UUUGAUUAAUAUGAUAUCGUUCUUUCUUGCAUAUUUUUCUUUCUCGAUAUCAUAUUAAUCUUU
B24: Ib_S2_P4E.1_K4.1_C4.1_H4.1_[G2C]_A4.1_F4.1_[A9T]_T4.1 (ssRNA)
RNA: UUUGAUUAAUAUGAUAUCGUUCUUUCUUCUAUAUUUUUCUUUCUCGAUAUCAUAUUAAUCUUU
B25: Ia_S2_P4E.1_K4.1_C4.1_H4.1_A4.1_F4.1_[T8C]_T4.1 (ssRNA)
RNA: UUUGAUUAAUAUGAUAUCGUUCUUUCUUGUAUAUCAUUCUUUCUCGAUAUCAUAUUAAUCUUU
B26: Ib_S2_P4E.1_K4.1_C4.1_H4.1_[G2A]_A4.1_F4.1_[A9C]_T4.1 (ssRNA)
RNA: UUUGAUUAAUAUGAUAUCGUUCUUUCUUAUAUAUUCUUCUUUCUCGAUAUCAUAUUAAUCUUU
B27: Ib_S2_P4E.1_K4.1_C4.1_H4.1_[A4G]_A4.1_F4.1_[A9C]_T4.1 (ssRNA)
RNA: UUUGAUUAAUAUGAUAUCGUUCUUUCUUGUGUAUUCUUCUUUCUCGAUAUCAUAUUAAUCUUU
B28: Ib_S2_P4E.1_K4.1_C4.1_H4.1_A4.1_[A6C]_F4.1_[T8A]_T4.1 (ssRNA)
RNA: UUUGAUUAAUAUGAUAUCGUUCUUUCUUGUAUCUAAUUCUUUCUCGAUAUCAUAUUAAUCUUU
B29: Ib_S2_P4E.1_K4.1_C4.1_H4.1_[T1G]_A4.1_F4.1_[A9T]_T4.1 (ssRNA)
RNA: UUUGAUUAAUAUGAUAUCGUUCUUUCUGGUAUAUUUUUCUUUCUCGAUAUCAUAUUAAUCUUU
B30: Ib_S2_P4E.1_K4.1_C4.1_H4.1_[A4G]_A4.1_F4.1_[T8A]_T4.1 (ssRNA)
RNA: UUUGAUUAAUAUGAUAUCGUUCUUUCUUGUGUAUAAUUCUUUCUCGAUAUCAUAUUAAUCUUU
B31: Ic_S2_P4E.1_K4.1_C4.1_H4.1_A4.1_[T7G]_F4.1_[T8C]_T4.1 (ssRNA)
RNA: UUUGAUUAAUAUGAUAUCGUUCUUUCUUGUAUAGCAUUCUUUCUCGAUAUCAUAUUAAUCUUU
B32: Ib_S2_P4E.1_K4.1_C4.1_H4.1_[A4C]_A4.1_F4.1_[T8C]_T4.1 (ssRNA)
RNA: UUUGAUUAAUAUGAUAUCGUUCUUUCUUGUCUAUCAUUCUUUCUCGAUAUCAUAUUAAUCUUU
B33: Ib_S2_P4E.1_K4.1_C4.1_H4.1_A4.1_[A6C]_F4.1_[T8C]_T4.1 (ssRNA)
RNA: UUUGAUUAAUAUGAUAUCGUUCUUUCUUGUAUCUCAUUCUUUCUCGAUAUCAUAUUAAUCUUU
B34: Ib_S2_P4E.1_K4.1_C4.1_H4.1_[A4T]_A4.1_F4.1_[T8A]_T4.1 (ssRNA)
RNA: UUUGAUUAAUAUGAUAUCGUUCUUUCUUGUUUAUAAUUCUUUCUCGAUAUCAUAUUAAUCUUU
B35: Ic_S2_P4E.1_K4.1_C4.1_H4.1_A4.1_[A6T]_F4.1_[T8C]_T4.1 (ssRNA)
RNA: UUUGAUUAAUAUGAUAUCGUUCUUUCUUGUAUUUCAUUCUUUCUCGAUAUCAUAUUAAUCUUU

Biological target: T1, PUF4 RNA-binding domain
Assay: Mg; RNA-MaP; 20 mM Na-HEPES pH 7.4, 30 mM KOAc, 0.75 mM MgCl2, 0.1% Tween-20, 5% glycerol, 0.1 mg/mL BSA, 2 mM DTT; 25 C; 0.0125-409.6 nM protein
Settings: tags: N-His6-TEV cleaved; C-SNAP kept, Cy3B-labelled; label: tethered on chip by stalled RNA polymerase

| Binder | Kd |
| --- | --- |
| B1 | 11.4 nM |
| B2 | 6.86 nM |
| B3 | 1670 nM |
| B4 | 5.78 nM |
| B5 | 2.52 nM |
| B6 | 28.9 nM |
| B7 | 607 nM |
| B8 | 17.8 nM |
| B9 | 1070 nM |
| B10 | > 2300 nM |
| B11 | 63.2 nM |
| B12 | 1380 nM |
| B13 | 2.83 nM |
| B14 | 848 nM |
| B15 | 451 nM |
| B16 | 1250 nM |
| B17 | 203 nM |
| B18 | 624 nM |

| Binder | Kd |
| --- | --- |
| B19 | 2.04 nM |
| B20 | 13.5 nM |
| B21 | 16.2 nM |
| B22 | 58.5 nM |
| B23 | 957 nM |
| B24 | 983 nM |
| B25 | 7.94 nM |
| B26 | 200 nM |
| B27 | 11.9 nM |
| B28 | 10.7 nM |
| B29 | 1380 nM |
| B30 | 3.78 nM |
| B31 | 42 nM |
| B32 | > 2300 nM |
| B33 | 30.6 nM |
| B34 | 122 nM |
| B35 | 104 nM |
